The values that follow come from the nanobody polyreactivity screen of Harvey et al. (2022).

The series is described as follows: yeast display, Sf9 membrane polyspecificity reagent, FACS + sequencing; frameworks hold sequencing errors. The method, boiled down: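 A nanobody's polyreactivity label depends on the gate it was sorted from. Yeast display cells were stained with 10% biotinylated, detergent-solubilized Sf9 membrane reagent for 1 hour at 4 °C, enriched on streptavidin microbeads and sorted by FACS. The low and high (top ~1%) gates were set on anti-HA fluorescence for expression and streptavidin fluorescence for reagent binding.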
In the case of “QVQLVESGGGLVQAGGSLRLSCAASGTIFNEYAMGWYRQAPGKERELVAAISTSGDITYYADSVKGRFTISRDNAKNTVYLQMNSLKPEDTAVYYCAAKYSLLRQYNRLDYWGQGTQVTVSS”, the “polyreactivity (PSR sort gate)” value is given as “low polyreactivity”.
As for “QVHLVESGGGLVQAGGSLRLSCAASGSTFPANAMGRYRQAPGKERELVAAITSGGSTNYADSVKGRFTISRDNAKNTVYLQMNSLKPEDTAVYYCADESYQAHSFYVYYGYDYWGQGTQVTVSS”, the “polyreactivity (PSR sort gate)” value was “low polyreactivity”.
Consider “QVQLVESGGGLVQAGGSLRLSCAASGFTFPLNAMGWYRQAPGKERELVAAISGSGGSTYYADSVKGRFTISRDNAKNTVYLQMNSLKPEDTAVYYCAAGIYYWGQGTQVTVSS”, for which the “polyreactivity (PSR sort gate)” value is “low polyreactivity”.
For the sequence “QVQLVESGGGLVQAGGSLRLSCAASGRIFNYYAMGWYRQAPGKERELVAAINSGGSTYADSVKGRFTISRDNAKNTVYLQMNSLKPEDTAVYYCAKDGQLQSGRERPSGYDHWGQGTQVTVSS”, the “polyreactivity (PSR sort gate)” value is reported as “low polyreactivity”.
On to “QVQLVESGGGLVQAGGSLRLSCAASGRTLEHNAMGWYRQAPGKERELVAAISGSGGTTYYADSVKGRFTISRDNAKNTVYLQMNSLKPEDTAVYYCNAKLYRSFDYWGQGTQVTVSS”, for which the “polyreactivity (PSR sort gate)” value was “low polyreactivity”.
Regarding “QVQLVESGGGLGQAGGSLRLSCAASGRIFFHYAMGWYRPAPGKERELVATITTVGSTYYADSVKGRFTISRDNAKNTVYLQMNSLKPEDTAVYYCAARYISLSGDEYDYWGQGTQVTVSS”, the “polyreactivity (PSR sort gate)” value is “low polyreactivity”.
Consider “QVQLVESGGGLVQAGGSLRLSCAASGFTFQYYAMGWYRQAPGKERELVAAITWSGTSTYYADSVKGRFTISRDNAKNTVYLQMNSLKPEDTAVYYCNKYSPYITYDYDYWGQGTQVTVSS”, for which the “polyreactivity (PSR sort gate)” value is on record as “high polyreactivity”.
As to “QVQLVESGGGLVQAGGSLRLSCAASGRIFVQNAMGWYRQAPGKERELVAAINWSVGSTYYADSVKGRFTISRDNAKNTVYLQMNSLKPEDTAVYYCAAGNLYYAEYDYWGQGTQVTVSS”, the “polyreactivity (PSR sort gate)” value is listed as “low polyreactivity”.
In the case of “QVQLVESGGGLVQAGGSLRLSCAASGSISQKYVMGWYRKAPGKERELVAAIRSTGNTYYADSVKGRFTISRDNAKNTVYLQMNSLKPEDTAVYYCAARLYVLRWYPYDYWGQGTQVTVSS”, the “polyreactivity (PSR sort gate)” value is given as “low polyreactivity”.
On to “QVQLVESGGGLVQAGGSLRLSCAASGSIFRLYALGWYRQAPGKERELVAAISRRGGSTNYADSVKGRFTISRDNAKNTVYFQMNSLKPEDTAVYYCARDVDTHYPYAYDYWGQGTQVTVSS”, for which the “polyreactivity (PSR sort gate)” value is listed as “high polyreactivity”.
Turning to “QVQHVESVGGLVQAGGSLRLSCASSGRTLFYYTMRWYRQARGTERELVAAISSGDSTNYADSVKGRFTISRDNAKNTVYLHMNSLKPEDTAVYYCAARFYQIRRRYDYWGQGTQVTVSS”, the “polyreactivity (PSR sort gate)” value is “low polyreactivity”.
As for “QVQLVESGGGLVQAGGSLRLSCAASGIIFGWYAMGWYRQAPGKEREFVATISWSGASTYYADSVKGRFTISRDNAKNTVYLQMNSLKPEDTAVYYCAAGGRRQAYGRRDYWGQGTQVTVSS”, the “polyreactivity (PSR sort gate)” value was “high polyreactivity”.
Under “QVQLVESGGGLVQAGGSLRLSCAASGYTFASNAMGWYRQAPGKERELVAAITRGGSTNYADSVKGRFTISRDNAKNTVYLQMNSLKPEDTAVYYCAAPRYRHTRKGGYWGQGTQVTVSS” stands “low polyreactivity”.
On to “QVQLVESGGGLVQAGGILRLSCAASGFTFDFNAMGWYRQAPGKERELVAAISSGASTNYADSVKGRYTISRDNAKNTVYLQMNRVIPLDSEVYYCAVYFYGSSTRSYQARFDYWGQGTQVTVSS”, for which the “polyreactivity (PSR sort gate)” value is on record as “high polyreactivity”.
To “QVQLVESGGGLVQAGGSLRLSCAASRSTFFHYAMGWNRQAPGKERELVAAISSDGITNYADSVKGRFTISRDNAKNTVYLQMNILIPEDTAVYYCNAETVSTVGLGYWGQGTQVTVSS” belongs “low polyreactivity”; to “QVQLVESGGGLVQAGGSLRLSCAASGSTIATYTMGWYRQAPGKERELVAAISVSGSRTYYADSVKGRFTISRDNAKNTVYLQMNSLIPEDTAVYYCNADPPVKLYLYDYWGQGTQVTVSS”, “high polyreactivity”.
As for “QVQLVESGGGLVQAGGSLRLSCAASGSTFVHYAMGWYRQAPGKEREFVASITRSGTSTYYADSVKGRFTISRDNAKNNVYLQMNSLKPEDTAVYYCNAELLGARQYWYYRYYYWGQGTQVTVSS”, the “polyreactivity (PSR sort gate)” value was “high polyreactivity”.
To “QVQLVESGGGLVQAGGSLRLSCAASGRTFTKYAMGWYRQAPGKERELVAAISRSGGSSYYADSAPGRFTISRDNAKNTVYLQMNSLKPEDTAVYYCAARGQYRYSFGDYSWGQGTQVTVSS” belongs “high polyreactivity”; to “QVQLVESGGGLVQAGGSLRLSCAPSGITFRPNAMGWYRQARGKERELVAAISSGDGTYADSVKGRFTISRDNAKNTVYLQMNSLKPEDSAVYYCNATGQSYVTSEYDYWGQGTQVTVSS”, “low polyreactivity”.
To “QVQLVESGGGLVQAGGSLRLSCAASGFTFTWYAMGWYRQAPGKERELVATISRSGGRTYYADSVKGRFTISRDNAKNTVYLQMNSLKPEDTAVYYCAADTRNYPRYDYWGQGTQVTVSS” belongs “high polyreactivity”; to “QVQLVESGGGLVQAGGSLRLSCAASGFIFYRYAMGWYRPAPGKERELVAAISRSGGTTYYADSVKGRFTISRDNAKNTVYLQMNSLKPEETAVYYCAAVGTVSRTVGYKYWGQGTQVTVSS”, “high polyreactivity”; to “QVQLVESGGGLVQAGGSLRLSCAASGFTFYSYAMGWYRQAPGKERELFAAITQSGGSTYYADSVKGRFTISRDNAKNTVYLQMNSLKPEDTAVYYCAADIYNDYDYGYYYWGQGTQVTVSS”, “low polyreactivity”.
To “QVQLVESGGGLVQAGCSLRLICAASGRIFSTYAMGWYRQAPGKERELVAAITSRGGSTYYADSVKGRFTISRDNAKNTVYLQMNSLKPEDTAVYYCATESPYKWGGYRFYYWGQGTQVTVSS” belongs “high polyreactivity”; to “QVQLVESGGGLVQAGGSLRLSCAASGRTFSKYTMGWYRQAPGKERELVAAIDRSGGSTYYADSVKGRFSISRDNAKNTVYLQMNSLKPEDTAVYYCNTGLRYYSYRRDYWGQGTQVTVSS”, “high polyreactivity”.
“QVQLVESGGGLVQAGGSLRLSCAASGRTFFRNAMGWYRQAPGKERELVAAISKRGGSTYYADSVKGRFTISRDNAKNTVYLQMNSLKPEDTAVYYCNADPRTVGLDYWGQGTQVTVSS”: the “polyreactivity (PSR sort gate)” value was “high polyreactivity”.
In the case of “QVQLVESGGGLVQAGGSLRLSCAASGFIFGINAMGWSRQAPGKERELVAAISRSGGRTYYADSVKGRCTISRDNAKNTVYLQMNSLKPEDTAVYYCAADKASYTNYDGDSWGQGTQVTVSS”, the “polyreactivity (PSR sort gate)” value is given as “high polyreactivity”.
Under “QVQLVESRGRLVQAGGSLRLSCAASGFSFVINDMGRYRQAPGKERELVADITSGGDTYYADSVKGRFTISRDNAKNTVYLQKNSLKPEDTAVYYCAADIYRDLIYLLYGYWGQGTQVTVSS” stands “low polyreactivity”.
With “QVQLVESGGGLVQAGGSLRFSSAASGRTFSSNAMGWYIQAPGKERELVAAISNSGSSTYYADSVKGRFTISRDNAKNTVYLQMNSLKPEDSAVYYCNAVGVYYWWYRLYDYWGQGTQVTVSS”, the “polyreactivity (PSR sort gate)” value is recorded as “high polyreactivity”.
With “QVQLVESGGGLVQAGGSLRLSCAASGLTFDGNTMGWYRQAPGKERELVAAISFDGGNTYADSVNGRFTISRDNAKNTVYLQMNSLKPEDTAVYYDYWGQGTQVTVSS”, the “polyreactivity (PSR sort gate)” value was “low polyreactivity”.
Turning to “QVQLVESGGGLVQAGGSLSLSCAASGRTMYTNAMGWYIQAPGKERELVAVITLSTDGTYYADSVKGRFTISRDNAKNTVYLQMNSLKPEDTAVYYCAIGDPDGDREIWRLYYWGQGTKVTVSS”, the “polyreactivity (PSR sort gate)” value is reported as “low polyreactivity”.
For the sequence “QDQLVESGGGLVQAGGSLRISCAASGFTFDENAMGWYRQAPGINYSGASTYYADSVKGRFTISRDNAKNTVYLQMYSLKPEDTAVYYCAAEVVALMNYWGQGSQVTVSS”, the “polyreactivity (PSR sort gate)” value was “low polyreactivity”.
Regarding “QVQLVESGGGLVQAGGSLRLSCAASGRTFYSYAMGWYRQAPGKERELVAAISRAGGTYYADSVKGRFTISRDNAKNTVYLQMNSLKPEDTAVYYCAARQAVYGLRSDFYYWGQGTQVTVSS”, the “polyreactivity (PSR sort gate)” value is reported as “high polyreactivity”.
Consider “QVQLVESGGGLVQAGGSLRLSCAASGRTFRLYAMGWYRQAPGKERELVAAITFRGGRTYYADSVKGRFTISRDNAKNTVYLQMNSLKPEYTAVYYCNAVTYSSPYRFDYWGQGTQVTVSS”, for which the “polyreactivity (PSR sort gate)” value is given as “low polyreactivity”.
“QVQLVESGGGLVQAGGSLRLSCAASGSTLFYYAMGCYRQAPGKERELVAAITQNGGGTYYADSVKGRFTISRDNAKNTVYLQMNSLKPEDTAVYYCAVTQEYIADHWYGYWGQGTQVTVSS”: the “polyreactivity (PSR sort gate)” value is on record as “low polyreactivity”.
On to “QVQLVESGGGLVQAGGSLRLSCAASGRIFKNYAMGWYRQAPGKERELVAAISRSGGRTYYADSVKGRFTISRDNAKNTVYLQMNSLKPEDTAVYYCAADVDYRYSKIYKWTYDYWGQGTQVTVSS”, for which the “polyreactivity (PSR sort gate)” value was “high polyreactivity”.
As for “QVQLVESGGGLVQAGGSLRLSCAASGITFYEYAMGWYRQAHGKERELVAAISQSGGSTYYADSVKGRFTISRDNAKNTVYLQMNSLKPEDTAVYYCAADIKWSIRRAYDYWGQGTQVTVSS”, the “polyreactivity (PSR sort gate)” value is reported as “high polyreactivity”.
With “QVQLVESGGGLVQAGGSLRLSCAASGRIFAYNTMGWYREAPGKERELVAVSTSGGSTNYADSVKGRFTISRDNAKNTVYLQMNSLKPEDSAVYYCAKRPYGRSGGSRYDYWGQGTQVTVSS”, the “polyreactivity (PSR sort gate)” value is on record as “high polyreactivity”.
Under “QFQLVESGGGLVQAGGSLRLSCAASGRTFRSNTMGWYRQAPGKEREFVAVITYSAGSTYYADSVKGRFTISRDNAKNTVYLQMNSLKPEDTAVYYCAARVSWWPYDWYGYWGQGTQVTVSS” stands “high polyreactivity”; under “QVQLLESGGGLVQAGGSLRISCAASGRTFTYNAMGWYRQAPGKERELVAAITASGGSTYYADSVKGRFTISRDNAKNTVYLQMNSLKPEDTAVYYCAARWSSPYVKLGYWGQGTQVTVSS”, “high polyreactivity”.
In the case of “QVQLVESGGGLVQAGGSLRLSCAASGGTFCRNVMGWYRQAPGKERELVAAISRRGSSTYYADSVKGRFTISRDNAKNTVYLQMNSLKPEDTAVYYCARDQYTGADEAGDDYWGQGTQVTVSS”, the “polyreactivity (PSR sort gate)” value is reported as “high polyreactivity”.
On to “QVQLVESGGGLVQAGGSLRLSCAASGRTYAYYAIGWYRQEPGKERELVAAISSGGSTYYADSVKGLFTISRDNAKNTVYLQMNSLKPEDTAVNYCATRDKQYYYWGQGTQVTLSS”, for which the “polyreactivity (PSR sort gate)” value was “high polyreactivity”.
